Source: the Human Domainome abundance scans (Beltran et al. 2025)
± gives the uncertainty stated by the source.

B1: Cyclin-F, residues 28 to 80; numbered along this chain, P41002 (parent)
chain: RNLTILSLPEDVLFHILKWLSVEDILAVRAVHSQLKDLVDNHASVWACASFQE

Variants of: B1
Assay: abundance fitness (aPCA) (normalised: wild type 0, dead -1); higher = more abundant; growth selection in yeast, the domain comes from the species named
Conditions: Homo sapiens

Variant	abundance fitness
RNLTILSLPEDVLFHILKVLSVEDILAVRAVHSQLKDLVDNHASVWACASFQE	-0.226 ± 0.084
RNLTILSLPEDVLFHILKDLSVEDILAVRAVHSQLKDLVDNHASVWACASFQE	-0.137 ± 0.12
RNLTILSLPEDVLFHILKELSVEDILAVRAVHSQLKDLVDNHASVWACASFQE	0.227 ± 0.16
RNLTILSLPEDVLFHILKNLSVEDILAVRAVHSQLKDLVDNHASVWACASFQE	0.223 ± 0.11
RNLTILSLPEDVLFHILKMLSVEDILAVRAVHSQLKDLVDNHASVWACASFQE	0.33 ± 0.13
RNLTILSLPEDVLFHILKGLSVEDILAVRAVHSQLKDLVDNHASVWACASFQE	-0.273 ± 0.097
RNLTILSLPEDVLFHILKCLSVEDILAVRAVHSQLKDLVDNHASVWACASFQE	0.229 ± 0.11
RNLTILSLPEDVLFHILKYLSVEDILAVRAVHSQLKDLVDNHASVWACASFQE	0.397 ± 0.17
RNLTILSLPEDVLFHILKSLSVEDILAVRAVHSQLKDLVDNHASVWACASFQE	-0.057 ± 0.091
RNLTILSLPEDVLFHILKPLSVEDILAVRAVHSQLKDLVDNHASVWACASFQE	-0.458 ± 0.14
RNLTILSLPEDVLFHILKKLSVEDILAVRAVHSQLKDLVDNHASVWACASFQE	0.218 ± 0.25
RNLTILSLPEDVLFHILKWLSVGDILAVRAVHSQLKDLVDNHASVWACASFQE	-0.48 ± 0.12
RNLTILSLPEDVLFHILKWLSVADILAVRAVHSQLKDLVDNHASVWACASFQE	-0.053 ± 0.14
RNLTILSLPEDVLFHILKWLSVCDILAVRAVHSQLKDLVDNHASVWACASFQE	-0.627 ± 0.23
RNLTILSLPEDVLFHILKWLSVDDILAVRAVHSQLKDLVDNHASVWACASFQE	0.057 ± 0.24
RNLTILSLPEDVLFHILKWLSVKDILAVRAVHSQLKDLVDNHASVWACASFQE	-0.105 ± 0.14
RNLTILSLPEDVLFHILKWLSVHDILAVRAVHSQLKDLVDNHASVWACASFQE	-0.358 ± 0.16
RNLTILSLPEDVLFHILDWLSVEDILAVRAVHSQLKDLVDNHASVWACASFQE	-0.483 ± 0.19
RNLTILSLPEDVLFHILFWLSVEDILAVRAVHSQLKDLVDNHASVWACASFQE	-0.573 ± 0.16
RNLTILSLPEDVLFHILIWLSVEDILAVRAVHSQLKDLVDNHASVWACASFQE	-0.449 ± 0.16
RNLTILSLPEDVLFHILAWLSVEDILAVRAVHSQLKDLVDNHASVWACASFQE	-0.314 ± 0.13
RNLTILSLPEDVLFHILVWLSVEDILAVRAVHSQLKDLVDNHASVWACASFQE	-0.452 ± 0.11
RNLTILSLPEDVLFHILLWLSVEDILAVRAVHSQLKDLVDNHASVWACASFQE	-0.553 ± 0.092
RNLTILSLPEDVLFHILMWLSVEDILAVRAVHSQLKDLVDNHASVWACASFQE	-0.251 ± 0.16
RNLTILSLPEDVLFHILNWLSVEDILAVRAVHSQLKDLVDNHASVWACASFQE	-0.107 ± 0.14

Variant	abundance fitness
RNLTILSLPEDVLFHILHWLSVEDILAVRAVHSQLKDLVDNHASVWACASFQE	-0.122 ± 0.17
RNLTILSLPEDVLFHILQWLSVEDILAVRAVHSQLKDLVDNHASVWACASFQE	-0.081 ± 0.16
RNLTILSLPEDVLFHILCWLSVEDILAVRAVHSQLKDLVDNHASVWACASFQE	-0.597 ± 0.2
RNLTILSLPEDVLFHILEWLSVEDILAVRAVHSQLKDLVDNHASVWACASFQE	-0.148 ± 0.13
RNLTILSLPEDVLFHILTWLSVEDILAVRAVHSQLKDLVDNHASVWACASFQE	-0.254 ± 0.13
RNLTILSLPEDVLFHILYWLSVEDILAVRAVHSQLKDLVDNHASVWACASFQE	-0.505 ± 0.22
RNLTILSLPEDVLFHILPWLSVEDILAVRAVHSQLKDLVDNHASVWACASFQE	-0.72 ± 0.17
RNLTILSLPEDVLFHILSWLSVEDILAVRAVHSQLKDLVDNHASVWACASFQE	-0.215 ± 0.097
RNLTILSLPEDVLFHILGWLSVEDILAVRAVHSQLKDLVDNHASVWACASFQE	-0.132 ± 0.1
RNLTILSLPEDVLFHILRWLSVEDILAVRAVHSQLKDLVDNHASVWACASFQE	-0.14 ± 0.091
RNLTILSLPEDVLFHILKWLSAEDILAVRAVHSQLKDLVDNHASVWACASFQE	-0.142 ± 0.085
RNLTILSLPEDVLFHILKWLSWEDILAVRAVHSQLKDLVDNHASVWACASFQE	-0.087 ± 0.079
RNLTILSLPEDVLFHILKWLSCEDILAVRAVHSQLKDLVDNHASVWACASFQE	-0.286 ± 0.091
RNLTILSLPEDVLFHILKWLSYEDILAVRAVHSQLKDLVDNHASVWACASFQE	0.02 ± 0.098
RNLTILSLPEDVLFHILKWLSFEDILAVRAVHSQLKDLVDNHASVWACASFQE	-0.141 ± 0.1
RNLTILSLPEDVLFHILKWLSKEDILAVRAVHSQLKDLVDNHASVWACASFQE	-0.132 ± 0.14
RNLTILSLPEDVLFHILKWLSEEDILAVRAVHSQLKDLVDNHASVWACASFQE	-0.285 ± 0.11
RNLTILSLPEDVLFHILKWLSQEDILAVRAVHSQLKDLVDNHASVWACASFQE	-0.267 ± 0.12
RNLTILSLPEDVLFHILKWLSSEDILAVRAVHSQLKDLVDNHASVWACASFQE	-0.452 ± 0.083
RNLTILSLPEDVLFHILKWLSHEDILAVRAVHSQLKDLVDNHASVWACASFQE	-0.122 ± 0.14
RNLTILSLPEDVLFHILKWLSIEDILAVRAVHSQLKDLVDNHASVWACASFQE	0.005 ± 0.12
RNLTILSLPEDVLFHILKWLSREDILAVRAVHSQLKDLVDNHASVWACASFQE	-0.177 ± 0.067
RNLTILSLPEDVLFHILKWLSDEDILAVRAVHSQLKDLVDNHASVWACASFQE	-0.405 ± 0.12
RNLTILSLPEDVLFHILKWLSGEDILAVRAVHSQLKDLVDNHASVWACASFQE	-0.553 ± 0.071
RNLTILSLPEDVLFHILKWLSTEDILAVRAVHSQLKDLVDNHASVWACASFQE	-0.168 ± 0.11
